The source of these data is patent US20210017269A1.

Broadly, the Kd is the equilibrium constant for the complex coming apart. Low values mean tighter binding, high ones weaker binding.

Assay [1] deals with human Fc gamma receptors (FcγR) (human). Description: ProteOn XPR36 SPR, His-tagged receptors captured, antibody as analyte, 25 °C, equilibrium model.
Assay [2] has as its target human complement component C1q (human) (UniProt P02745). The assay can be described thus: ProteOn XPR36 SPR, antibody immobilised, C1q as analyte, equilibrium model.

Sequence of human complement component C1q (human) (P02745 23-245 limits assumed, chain 1 of 3): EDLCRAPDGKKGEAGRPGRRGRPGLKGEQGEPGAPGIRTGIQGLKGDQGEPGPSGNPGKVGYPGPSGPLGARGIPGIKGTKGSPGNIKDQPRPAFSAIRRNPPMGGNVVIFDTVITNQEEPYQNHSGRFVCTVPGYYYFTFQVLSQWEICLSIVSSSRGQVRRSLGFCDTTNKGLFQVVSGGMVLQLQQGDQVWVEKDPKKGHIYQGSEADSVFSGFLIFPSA
Sequence of human complement component C1q (human) (P02746 28-253 limits assumed, chain 2 of 3, further chain): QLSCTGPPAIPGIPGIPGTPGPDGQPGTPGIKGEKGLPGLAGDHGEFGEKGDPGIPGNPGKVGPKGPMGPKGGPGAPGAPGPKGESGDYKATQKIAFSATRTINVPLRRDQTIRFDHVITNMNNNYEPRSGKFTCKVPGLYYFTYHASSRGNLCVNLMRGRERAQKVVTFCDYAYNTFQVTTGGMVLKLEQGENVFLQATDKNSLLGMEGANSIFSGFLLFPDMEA
Sequence of human complement component C1q (human) (P02747 29-245 limits assumed, chain 3 of 3, further chain): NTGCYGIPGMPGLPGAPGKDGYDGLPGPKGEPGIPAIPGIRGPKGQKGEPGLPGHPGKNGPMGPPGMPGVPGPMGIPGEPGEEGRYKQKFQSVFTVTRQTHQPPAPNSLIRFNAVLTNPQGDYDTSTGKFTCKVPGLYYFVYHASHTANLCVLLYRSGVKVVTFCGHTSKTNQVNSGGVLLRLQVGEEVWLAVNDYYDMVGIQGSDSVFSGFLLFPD

For the substance YTE containing control antibody, the fold lower affinity than the human IgG1 wild type control in assay [1] worked out at 1.5 fold.
As for “IgG1 wildtype isotype control (antibody)”, in assay [2], the Kd is 465 nM.
